Laboratory results reported in publication PMC6957489.

Tests used:
[1] = molecular target: t-SNARE heterodimer with syntaxin-1A labeled at position 203 with cy5 (N-N FRET pair) (rat) (UniProt P32851); assay: FRET or BRET; single-molecule FRET (prism-based TIRF, 100-ms resolution) between cy3-syb2 in v-SNARE 13 nm nanodiscs (ND1) and cy5-syntaxin-1A in t-SNARE nanodiscs; NDs (5 µM) incubated at room temperature 30 min, diluted to 10 pM; no syt1; with EGTA or 500 µM free Ca2+ (Ca2+ had no effect); 100 mM KCl, 25 mM HEPES pH 7.4
[2] = molecular target: t-SNARE heterodimer with syntaxin-1A labeled at position 241 with cy5 (C-C FRET pair) (rat) (UniProt P32851); assay: as above
[3] = molecular target: t-SNARE heterodimer with syntaxin-1A labeled at position 241 with cy5 (C-C FRET pair) (rat) (UniProt P32851); assay: FRET or BRET; single-molecule FRET as above, with full-length syt1 co-reconstituted in the v-SNARE nanodisc; values in the absence of Ca2+ (EGTA); subsequent Ca2+ (500 µM free) had only subtle effects, with an increase in the highest C-C FRET peak

Row | FRET ratio (R), peak of the distribution, N-N pair [1] | FRET ratio (R), peak of the distribution, C-C pair [2] | FRET ratio (R), C-C pair, first of three states (with apo-syt1) [3] | FRET ratio (R), C-C pair, second of three states (with apo-syt1) [3] | FRET ratio (R), C-C pair, third of three states (with apo-syt1) [3] | Substance
1 | 0.7 |  |  |  |  | syb2 labeled at position 33 with cy3 (N-N FRET pair) (from UniProt P63045 1-116) (natural protein)
2 |  | 0.2 | 0.2 | 0.5 | 0.7 | syb2 labeled at position 72 with cy3 (C-C FRET pair) (from UniProt P63045 1-116) (natural protein)
